Reference: publication PMC5382266 (Nature Communications, 2017)

B1: TSLP^Δ127–131 (ligand, human, UniProt Q969D9-1 29-159, looked up)
chain: YDFTNCDFEKIKAAYLSTISKDLITYMSGTKSTEFNNTVSCSNRPHCLTEIQSLTFNPTAGCASLAKEMFAMKTKAALAIWCPGYSETQINATQAMKKVTTNKCLEQVSQLQGLWRRFNRPLLKQQ
notes: His tag removed with thrombin; also called non-glycosylated human TSLP lacking a basic cassette; not shown: His6, N-terminal, cleaved
B2: TSLPR^N47Q (domain or fragment, human, UniProt Q9HC73-1 23-221, looked up)
chain: QGGAAEGVQIQIIYFNLETVQVTWQASKYSRTNLTFHYRFNGDEAYDQCTNYLLQEGHTSGCLLDAEQRDDILYFSIRNGTHPVFTASRWMVYYLKPSSPKHVRFSWHQDAVTVTCSDLSYGDLLYEVQYRSPFDTEWQSKQENTCNVTIEGLDAEKCYSFWVRVKAMEDVYGPDTYPSDWSEVTCWQRGEIRDACAET
notes: signal peptide in the construct; extracellular fragment of human TSLPR, NP_071431.2, residues 1-221, N-glycosylation mutant N47Q; also called EndoH-treated TSLPR^N47Q
B3: refolded IL-7Rα ectodomain (domain or fragment, human, UniProt P16871-1 21-239, looked up)
chain: ESGYAQNGDLEDAELDDYSFSCYSQLEVNGSQHSLTCAFEDPDVNITNLEFEICGALVEVKCLNFRKLQEIYFIETKKFLLIGKSNICVKVGEKSLTCKKIDLTTIVKPEAPFDLSVVYREGANDFVVTFNTSHLQKKYVKVLMHDVAYRQEKDENKWTHVNLSSTKLTLLQRKLQPAAMYEIKVRSIPDHYFKGFWSEWSPSYYFRTPEINNSSGEMD
notes: extracellular fragment of human IL-7Rα, NP_002176.2, residues 21-239; His tag removed with thrombin; also called IL-7Rα ectodomain (E. coli); not shown: His6, N-terminal, cleaved

Assays:
Settings in all cases: both partners purified
[1] = target: B2; assay: SEC-MALS; Superdex 200 Increase 10/300 GL, HBS pH 7.4, 0.5 ml/min, 25 °C; glycan-minimized ternary complex
[2] = target: B3; assay: crystal structure; TSLP^Δ127–131:TSLPR^N47Q:IL-7Rα complex; 0.02 M citric acid, 0.08 M BIS-TRIS propane pH 8.8, 16% PEG 3,350, 293 K; 2.55 Å
[3] = target: T1, binary TSLP^Δ127–131:TSLPR^N47Q complex (human, UniProt Q969D9-1 29-159; Q9HC73-1 23-221, Δ127–131 | N47Q); assay: SEC-MALS; Superdex 200 Increase 10/300 GL, HBS pH 7.4, 0.5 ml/min, 25 °C; glycan-minimized ternary complex
T1 construct: as the chain of m8; signal peptide in the construct; extracellular fragment of human TSLPR, NP_071431.2, residues 1-221, N47Q; as the chain of m9; also called TSLP:TSLPR^N47Q complex; not shown: His6, N-terminal, cleaved; copies: 1 + 1

Binder: B1
stoichiometry N [1]: 1

Binder: B2
binding result [2]: binds

Binder: B3
stoichiometry N [3]: 1
